From US20230090771A1 (REGENTS OF THE UNIVERSITY OF MINNESOTA, published 2023)

Tests used:
[1] = target: T1, his6-SonA, split borosin precursor SonA (Shewanella oneidensis) with N-terminal hexa-histidine tag, co-expressed with SonM
T1 chain: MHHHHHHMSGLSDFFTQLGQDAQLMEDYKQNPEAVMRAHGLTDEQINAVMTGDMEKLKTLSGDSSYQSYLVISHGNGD

[2] = target: T2, his6-SonA, split borosin precursor SonA (Shewanella oneidensis) with N-terminal hexa-histidine tag, … (Shewanella oneidensis, alpha-N-methylations on L63 and I65 (the vast majority purified in the 2-alpha-N-methylated state)); assay: co-purification of untagged SonM with his6-SonA by nickel affinity and size exclusion chromatography, SDS-PAGE
T2 construct: This complex was used for crystallisation; also called WP_011071666
T2 chain: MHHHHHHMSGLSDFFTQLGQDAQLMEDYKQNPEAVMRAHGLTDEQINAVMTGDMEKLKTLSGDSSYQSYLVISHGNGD

[3] = target: T3, his6-SonA (Shewanella oneidensis), expressed alone as substrate for kinetics
T3 chain: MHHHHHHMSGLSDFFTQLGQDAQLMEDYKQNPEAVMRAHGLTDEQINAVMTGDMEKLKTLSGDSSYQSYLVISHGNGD

| Binder | MS1 alpha-N-methylation profile of SonA co-purified with SonM [1] | binding result [2] | substrate turnover (coupled-enzyme Michaelis-Menten kinetics) [3] |
| --- | --- | --- | --- |
| split borosin alpha-N-methyltransferase SonM (Shewanella oneidensis), untagged, co-expressed with his6-SonA (enzyme, also called WP_011071665) MGSLVCVGTGLQLAGQISVLSRSYIEHADIVFSLLPDGFSQRWLTKLNPNVINLQQFYAQNGEVKNRRDTYEQMVNAILDAVRAGKKTVCALYGHPGVFACVSHMAITRAKAEGFSAKMEPGISAEACLWADLGIDPGNSGHQSFEASQFMFFNHVPDPTTHLLLWQIAIAGEHTLTQFHTSSDRLQILVEQLNQWYPLDHEVVIYEAANLPIQAPRIERLPLANLPQAHLMPISTLLIPPAKKLEYNYAILAKLGIGPEDLG | the vast majority of SonA is purified as the 2-alpha-N-methylated state | binds |  |
| his6-SonM wild type (Shewanella oneidensis), expressed alone for kinetics (protein) MHHHHHHSSMGSLVCVGTGLQLAGQISVLSRSYIEHADIVFSLLPDGFSQRWLTKLNPNVINLQQFYAQNGEVKNRRDTYEQMVNAILDAVRAGKKTVCALYGHPGVFACVSHMAITRAKAEGFSAKMEPGISAEACLWADLGIDPGNSGHQSFEASQFMFFNHVPDPTTHLLLWQIAIAGEHTLTQFHTSSDRLQILVEQLNQWYPLDHEVVIYEAANLPIQAPRIERLPLANLPQAHLMPISTLLIPPAKKLEYNYAILAKLGIGPEDLG |  |  | SonM wild type (WT) and several active-site mutants reveal multiple SonA substrate turnover |
| SonM mutant R67K (protein) MHHHHHHSSMGSLVCVGTGLQLAGQISVLSRSYIEHADIVFSLLPDGFSQRWLTKLNPNVINLQQFYAQNGEVKNKRDTYEQMVNAILDAVRAGKKTVCALYGHPGVFACVSHMAITRAKAEGFSAKMEPGISAEACLWADLGIDPGNSGHQSFEASQFMFFNHVPDPTTHLLLWQIAIAGEHTLTQFHTSSDRLQILVEQLNQWYPLDHEVVIYEAANLPIQAPRIERLPLANLPQAHLMPISTLLIPPAKKLEYNYAILAKLGIGPEDLG |  |  | SonM wild type (WT) and several active-site mutants reveal multiple SonA substrate turnover |
| SonM mutant Y93F (protein) MHHHHHHSSMGSLVCVGTGLQLAGQISVLSRSYIEHADIVFSLLPDGFSQRWLTKLNPNVINLQQFYAQNGEVKNRRDTYEQMVNAILDAVRAGKKTVCALFGHPGVFACVSHMAITRAKAEGFSAKMEPGISAEACLWADLGIDPGNSGHQSFEASQFMFFNHVPDPTTHLLLWQIAIAGEHTLTQFHTSSDRLQILVEQLNQWYPLDHEVVIYEAANLPIQAPRIERLPLANLPQAHLMPISTLLIPPAKKLEYNYAILAKLGIGPEDLG |  |  | SonM wild type (WT) and several active-site mutants reveal multiple SonA substrate turnover |
| SonM mutant Y71F (protein) MHHHHHHSSMGSLVCVGTGLQLAGQISVLSRSYIEHADIVFSLLPDGFSQRWLTKLNPNVINLQQFYAQNGEVKNRRDTFEQMVNAILDAVRAGKKTVCALYGHPGVFACVSHMAITRAKAEGFSAKMEPGISAEACLWADLGIDPGNSGHQSFEASQFMFFNHVPDPTTHLLLWQIAIAGEHTLTQFHTSSDRLQILVEQLNQWYPLDHEVVIYEAANLPIQAPRIERLPLANLPQAHLMPISTLLIPPAKKLEYNYAILAKLGIGPEDLG |  |  | SonM wild type (WT) and several active-site mutants reveal multiple SonA substrate turnover |
| SonM mutant Y58F (protein) MHHHHHHSSMGSLVCVGTGLQLAGQISVLSRSYIEHADIVFSLLPDGFSQRWLTKLNPNVINLQQFFAQNGEVKNRRDTYEQMVNAILDAVRAGKKTVCALYGHPGVFACVSHMAITRAKAEGFSAKMEPGISAEACLWADLGIDPGNSGHQSFEASQFMFFNHVPDPTTHLLLWQIAIAGEHTLTQFHTSSDRLQILVEQLNQWYPLDHEVVIYEAANLPIQAPRIERLPLANLPQAHLMPISTLLIPPAKKLEYNYAILAKLGIGPEDLG |  |  | SonM wild type (WT) and several active-site mutants reveal multiple SonA substrate turnover |
